Experimental data published in patent US20090148907A1, “NOVEL FRUCTOFURANOSIDASE ACTIVITY FOR OBTAINING THE PREBIOTIC OLIGOSACCHARIDE 6-KESTOSE” (CONSEJO SUPERIOR DE INVESTIGACIONES CIENTIFICAS, priority 2005, published 2009).

Key:
Type in all cases: biochemical
[1] = Fructofuranosidase activity of fractions during purification; conditions: eluted at 0.2 M of salt, DEAE-Sephacel pH 5
Method: The cell free fraction was obtained by centrifugation (F-0) of a culture of S. occidentalis ATCC26077 grown at 29° C. and 235 rpm. Fructofuranosidase activity was assayed in the latter, determining the glucose release on different substrates. A colorimetric assay and the standard methodology were used. The released glucose was quantified using the glucose oxidase-peroxidase coupled reaction: 0.4 ml of the solution to be determined was mixed with 0.1 ml of A:B (20:1) solution (A: 0.85 U/ml glucose oxidase, 0.40 U/ml peroxidase in sodium phosphate buffer pH 5; B: 0.6% O-dianisidine). It was incubated for 30 minutes at 37° C. and spectrophotometrically quantified at 450 nm. A standard glucose curve (0 to 100 μg/ml) was used. The fructofuranosidase activity unit is defined in μmol/ml min of glucose determined in the described conditions.
For the purification of the enzyme, 2 liters of extracellular fraction of S. occidentalis, with a fructofuranosidase activity of 0.58 U/ml, were used to begin. The following method was used:
1) Concentration of the extracellular fraction using a tangential filtration system (30 kDa fitter) followed by dialysis against 20 mM HCl-Tris pH 7 (buffer A) for 2 hours at a temperature of 4° C. […]
3) Ion exchange chromatography to pH 5. […] The fructofuranosidase activity determined as previously indicated eluted at 0.2 M of salt and was 0.33 U (F-3).

[2] = Fructofuranosidase activity at different pH and temperatures; conditions: solution of pure protein, on sucrose
Method: The fructofuranosidase activity was assayed at different pH and temperatures. Maximum activity levels were obtained in a pH range comprised, between 5 and 6 units at 50° C. and at a temperature of 40 and 55° C.
FIG. 3 indicates the enzymatic activity in function of the pH and of the temperature, showing the corresponding maximums. The assays were performed on sucrose using a solution of pure protein. 100% corresponds to an activity of 5.59 U/ml. FIG. 3A: fructofuranosidase activity was determined at different pHs (3-9 pH units), an assay temperature of 50° C. and sodium citrate, sodium phosphate and HCl-Tris buffer (all of them 100 mM) for the pH range of 3-4.5, 5.0-7.5 and 8.0-9.0, respectively. FIG. 3B: the temperature assay (30-70° C.) was performed in 50 mM sodium phosphate pH 5.5.

[3] = molecular target: T1, fructofuranosidase of S. occidentalis (pure enzyme F-3) (Schwanniomyces occidentalis, UniProt P24133); assay: Transfructosidase (transglycosylation) activity of pure enzyme F-3 on sucrose, HPLC; conditions: after 144 hours at 50° C, high sucrose concentration
T1 construct: the enzyme object of the invention is extracellularly released; endogenous in cells; host or cells: Schwanniomyces occidentalis culture supernatant; concentrated (F-1), then DEAE-Sephacel at pH 7 (F-2) and at pH 5 (F-3)
T1 sequence (P24133 whole entry, looked up): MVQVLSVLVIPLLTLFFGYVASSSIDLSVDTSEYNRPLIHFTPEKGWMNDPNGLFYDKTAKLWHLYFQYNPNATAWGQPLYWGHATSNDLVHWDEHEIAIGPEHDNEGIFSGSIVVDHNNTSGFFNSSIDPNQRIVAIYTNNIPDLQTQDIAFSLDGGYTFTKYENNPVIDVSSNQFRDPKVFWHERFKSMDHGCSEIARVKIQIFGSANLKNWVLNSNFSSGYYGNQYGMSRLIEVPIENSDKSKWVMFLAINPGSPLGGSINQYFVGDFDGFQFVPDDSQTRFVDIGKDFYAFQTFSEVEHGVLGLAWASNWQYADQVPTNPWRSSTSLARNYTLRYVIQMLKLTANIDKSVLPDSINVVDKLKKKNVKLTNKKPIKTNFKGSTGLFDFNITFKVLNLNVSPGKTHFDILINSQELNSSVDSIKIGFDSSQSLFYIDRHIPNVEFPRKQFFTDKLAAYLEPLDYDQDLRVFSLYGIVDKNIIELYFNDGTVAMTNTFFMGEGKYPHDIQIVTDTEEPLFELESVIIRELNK
Method: The transglycosylation activity of the pure enzyme (fraction F-3) was assayed. A reaction was prepared using a high concentration of sucrose (510 g/l) and a final enzymatic activity in the reaction mixture of approximately 0.5 U/ml. […] It is seen that the profile of the obtained products is very similar in both cases, specifically the 6-kestose/1-kestose ratio that was obtained was 3.3.
After 144 hours of reaction, 42.6 g/l of FOS were obtained. The total percentage (w/w) of fructooligosaccharides was 8.4% this value being with respect to the total weight of carbohydrates in the medium.
A high concentration solution of sucrose ([…]) in 0.2 M sodium acetate buffer pH 5.6 was prepared. The fructofuranosidase was added until a final concentration in the reaction mixture of 0.5 U/ml (one unit U is the enzymatic activity corresponding to releasing a micromole of reducing sugars per minute, using 100 g/l of sucrose as substrate, in 0.2 M sodium acetate buffer pH 5.6, at 50° C.). The reaction mixture was incubated for 144 hours at 50° C., with orbital stirring at 700 rpm. Aliquots were extracted at different times, incubated for 5 minutes at 80° C. to inactivate the enzyme, diluted 1:2 (v/v) with water centrifuged for 5 minutes at 6000 rpm in an eppendorf tube with a 0.45 μm filter and analyzed by HPLC liquid chromatography. The profile of the products formed is seen in FIG. 7. Two trisaccharides were obtained: a majority trisaccharide, identified as 6-kestose, and another minority trisaccharide, identified as 1-kestose. At the final reaction time (144 h), the composition of the system was: 12.7% fructose, 14.80/glucose. 64.1% sucrose, 2.4% 1-kestose and 5.9% 6-kestose).

B1: F-3: purified fructofuranosidase of S. occidentalis with transfructosidase activity, SEQ. ID. NO: 1, 535 amino acids (protein, listed as Debaryomyces occidentalis)
chain: MVQVLSVLVIPLLTLFFGYVASSSIDLSVDTSEYNRPLIHFTPEKGWMNDPNGLFYDKTAKLWHLYFQYNPNATAWGQPLYWGHATSNDLVHWDEHEIAIGPEHDNEGIFSGSIVVDHNNTSGFFNSSIDPNQRIVAIYTNNIPDLQTQDIAFSLDGGYTFTKYENNPVIDVSSNQFRDPKVFWHEDSNQWIMVVLKSQEYKIQIFGSANLKNWVLNSNFSSGYYGNQYECPGLIEVPIENSDKSKWVMFLAINPGSPLGGSINQYFVGDFDGFQFVPDDSQTRFVDIGKDFYAFQTFSEVEHGVLGLAWASNWQYADQVPTNPWRSSTSLARNYTLRYVHTNAETKQLTLIQNPVLPDSINVVDKLKKKNVKLTNKKPIKTNFKGSTGLFDFNITFKVLNLNVSPGKTHFDILINSQELNSSVDSIKIGFDSSQSSFYIDRHIPNVEFPRKQFFTDKLAAYLEPLDYDQDLRVFSLYGIVDKNIIELYFNDGTVAMTNTFFMGEGKYPHDIQIVTDTEEPLFELESVIIRELNK
With B1 the Fructofuranosidase activity [1] was 0.33 U, the “Activity corresponding to 100% in FIG. 3” value [2] was 5.59 U/ml and the “Transfructosidase activity retained (in words)” value [3] was “still maintains transfructosidase activity”.
